Here are results for 4 molecules from US20210386788A1, “ER TUNABLE PROTEIN REGULATION” (Obsidian Therapeutics, Inc., priority 2018, published 2021).

Format in all cases: cell-based, human
Assay [1] relates to HEK 293T cells. As to the kind of experiment: IL12 expression of ER-DD flexi IL12 constructs in transiently transfected HEK 293T cells (MSD assay). The following applies: for IL12 expression, 1 μM BZD / IL12 expression, Vehicle: HEK 293T transiently transfected, MSD assay; for IL12 expression, 1 μM BZD: 1 μM Bazedoxifene 24 hours; for IL12 expression, Vehicle: vehicle control 24 hours; for Stabilization Ratio: IL12 with 1 μM BZD versus vehicle. How it is done: HEK 293T cells were transiently transfected with constructs containing ER-DDs fused to flexi IL12 with or without intervening furin site to generate constructs: OT-001569, OT-001737. Cells were then treated with 1 μM Bazedoxifene (BZD) or vehicle control for 24 hours and IL12 levels were measured by MSD assay Table 11.

Assay [2] relates to HEK293T cells. As to the kind of experiment: IL12 p40 in media of HEK293T cells transfected with IL12-CD19 CAR tandem constructs (MSD assay). The settings on record: for IL12p40 DMSO Average: vehicle 24 hrs (absence of ligand). The method, then: (§1) HEK293T cells were transiently transfected with 1 μg DNA from each construct listed in the first column of Table 13 and incubated in DMEM with 10% FBS at 37° C., 5% CO2 for 24 hrs. Following the incubation, 1 μM of Bazedoxifene (BZD) or vehicle was added and cells were further incubated for 24 hrs. Following the incubation, CD19 CAR expression on the cell surface was quantified using FACS with CD19-Fc reagent, as a measure of transfection efficiency. IL12 levels in the media were quantified using MSD assay for p40. The IL12 and CD19 levels are shown in Table 13, where SD indicates standard deviation and SR indicates stabilization ratio. The stabilization ratio was calculated using the average IL12 values.

Assay [3] has as its system HEK293T cells. As to the kind of experiment: CD19 CAR cell surface expression in transfected HEK293T cells (FACS with CD19-Fc). The settings on record: measure of transfection efficiency. How it is done:
as §1

For assay [4], the system named is primary T cells. Briefly: CD19 CAR expression on lentivirus transduced primary T cells (flow cytometry with CD19-Fc). The following applies: both day 7 and day 9. The method, then:
Primary T cells were activated with CD3/CD28 Dynabeads at 3:1 Bead: Cell ratio overnight, then transduced with OT-001792 lentivirus. On day 7 of the T cell expansion, CAR expression was measured by flow cytometry with CD19-Fc on cells treated overnight in the presence (34% positive) or absence (0.6% positive) of 1 μM Bazedoxifene. After the T cells had expanded for 10 days, they were mixed with CD19-expressing Nalm6 target cells at ratios of 10:1 and 2.5:1 total T cells:Nalm6 cells and cultured for 3 days.
Primary T cells were activated with CD3/CD28 Dynabeads at 3:1 Bead:Cell ratio overnight, then transduced with lentiviruses derived from the indicated constructs. On day 7 or day 9 (as indicated) of the T cell expansion, CAR expression was measured by flow cytometry with CD19-Fc on cells incubated for 24 hours with 1 μM Bazedoxifene or 1 μM Raloxifene or DMSO. […] At day 9 the basal percentage of CAR positive cells for the same constructs was even lower at approximately 20% i.e. in the absence of ligand and about 32-45% in the presence of either ligand. […] This was true at both day 7 and day 9.
Human donor T cells were thawed and activated overnight in the presence of CD3/CD28 Dynabeads at 3:1 bead:cell ratio, then transduced with lentivirus related to OT-002158, or OT-001786. Cells were expanded over the course of 10 days, with fresh media added to maintain cells at around 0.5×10^6 cells/mL. On day 9, an aliquot of cells was removed, and treated with 1 μM Bazedoxifene overnight or DMSO vehicle control, then stained with 10 μg/mL CD19-Fc. Histograms showing CAR expression from a Live Singlet cell gate were plotted.
Human donor T cells were thawed and activated overnight in the presence of CD3/CD28 Dynabeads at 3:1 bead:cell ratio, then transduced with lentivirus from the constructs. Cells were expanded over the course of 10 days, and fresh media was added to maintain cells around 0.5×10^6 cells/ml. On day 9, an aliquot of cells were removed, treated with 1 μM Bazedoxifene overnight, then stained with 10 μg/mL CD19-Fc. Histograms showing CAR expression from a Live Singlet cell gate were plotted. The data are shown in Table 19 and Table 20 where data are presented as % CAR positive cells, where SR indicates stabilization ration.
T cells were transduced with OT-00179, OT-002158, OT-001407 or empty vector and expanded as described herein, frozen on day 10. To confirm the expression and function of this large scale expansion for in vivo use, cells were thawed and incubated overnight in the presence of CD3/28 beads (1:1 bead:cell ratio) and with or without 1 μM Bazedoxifene. FACS staining with 1 μg/mL CD19-Fc was performed to measure the surface expression of CD19-CAR. The data are provided in Table 21 as the percentage CAR positive cells.
(In general: A flow cytometer gives signals particle by particle.)

B1: OT-001569: ER-DD (T371A, L384M, M421G, N519S, G521R, Y537S) fused to flexi IL12 (protein)
chain: MCHQQLVISWFSLVFLASPLVAGSSLALSLTADQMVSALLDAEPPILYSEYDPTRPFSEASMMGLLTNLADRELVHMINWAKRVPGFVDLALHDQVHLLECAWMEILMIGLVWRSMEHPGKLLFAPNLLLDRNQGKCVEGGVEIFDMLLATSSRFRMMNLQGEEFVCLKSIILLNSGVYTFLSSTLKSLEEKDHIHRVLDKITDTLIHLMAKAGLTLQQQHQRLAQLLLILSHIRHMSSKRMEHLYSMKCKNVVPLSDLLLEMLDAHRLGSIWELKKDVYVVELDWYPDAPGEMVVLTCDTPEEDGITWTLDQSSEVLGSGKTLTIQVKEFGDAGQYTCHKGGEVLSHSLLLLHKKEDGIWSTDILKDQKEPKNKTFLRCEAKNYSGRFTCWWLTTISTDLTFSVKSSRGSSDPQGVTCGAATLSAERVRGDNKEYEYSVECQEDSACPAAEESLPIEVMVDAVHKLKYENYTSSFFIRDIIKPDPPKNLQLKPLKNSRQVEVSWEYPDTWSTPHSYFSLTFCVQVQGKSKREKKDRVFTDKTSATVICRKNASISVRAQDRYYSSSWSEWASVPCSGGGGSGGGGSGGGGSRNLPVATPDPGMFPCLHHSQNLLRAVSNMLQKARQTLEFYPCTSEEIDHEDITKDKTSTVEACLPLELTKNESCLNSRETSFITNGSCLASRKTSFMMALCLSSIYEDLKMYQVEFKTMNAKLLMDPKRQIFLDQNMLAVIDELMQALNFNSETVPQKSSLEEPDFYKTKIKLCILLHAFRIRAVTIDRVMSYLNAS
For the molecule B1, in assay [1], the “IL12 expression, 1 μM BZD” value came out at 109878; the “IL12 expression, Vehicle” value is 11529.1; the “Stabilization Ratio” value turned out to be 9.5. Besides, the “IL12p40 1 μM BZD Average” value in assay [2] (HEK293T, 1 μg DNA, 1 μM Bazedoxifene 24 hrs) worked out at 75542.57 pg/mL. Further, the “IL12p40 DMSO Average” value in assay [2] (HEK293T, 1 μg DNA) is 6443.64 pg/mL. The “SR (stabilization ratio)” value in assay [2] (calculated using the average IL12 values, 1 μM BZD versus DMSO) is 11.72. The “Surface CAR” value in assay [3] is reported as 0.1%.

B2: OT-001737: ER-DD fused to flexi IL12, with or without intervening furin site (protein)
chain: MCHQQLVISWFSLVFLASPLVAGSSLALSLTADQMVSALLDAEPPILYSEYDPTRPFSEASMMGLLTNLADRELVHMINWAKRVPGFVDLALHDQVHLLECAWMEILMIGLVWRSMEHPGKLLFAPNLLLDRNQGKCVEGGVEIFDMLLATSSRFRMMNLQGEEFVCLKSIILLNSGVYTFLSSTLKSLEEKDHIHRVLDKITDTLIHLMAKAGLTLQQQHQRLAQLLLILSHIRHMSSKRMEHLYSMKCKNVVPLSDLLLEMLDAHRLRTKRIWELKKDVYVVELDWYPDAPGEMVVLTCDTPEEDGITWTLDQSSEVLGSGKTLTIQVKEFGDAGQYTCHKGGEVLSHSLLLLHKKEDGIWSTDILKDQKEPKNKTFLRCEAKNYSGRFTCWWLTTISTDLTFSVKSSRGSSDPQGVTCGAATLSAERVRGDNKEYEYSVECQEDSACPAAEESLPIEVMVDAVHKLKYENYTSSFFIRDIIKPDPPKNLQLKPLKNSRQVEVSWEYPDTWSTPHSYFSLTFCVQVQGKSKREKKDRVFTDKTSATVICRKNASISVRAQDRYYSSSWSEWASVPCSGGGGSGGGGSGGGGSRNLPVATPDPGMFPCLHHSQNLLRAVSNMLQKARQTLEFYPCTSEEIDHEDITKDKTSTVEACLPLELTKNESCLNSRETSFITNGSCLASRKTSFMMALCLSSIYEDLKMYQVEFKTMNAKLLMDPKRQIFLDQNMLAVIDELMQALNFNSETVPQKSSLEEPDFYKTKIKLCILLHAFRIRAVTIDRVMSYLNAS
B2: in assay [1], the “IL12 expression, 1 μM BZD” value turned out to be 79706.8; the “IL12 expression, Vehicle” value is 10186.4; the “Stabilization Ratio” value is recorded as 7.8.

B3: OT-001791: CD8α leader; Linker (RS); ER (T371A, L384M, M421G, N519S, G521R, Y537S); Furin cleavage site; CD19 CAR; SEQ ID NO. 404 (protein)
chain: MALPVTALLLPLALLLHAARPRSSLALSLTADQMVSALLDAEPPILYSEYDPTRPFSEASMMGLLTNLADRELVHMINWAKRVPGFVDLALHDQVHLLECAWMEILMIGLVWRSMEHPGKLLFAPNLLLDRNQGKCVEGGVEIFDMLLATSSRFRMMNLQGEEFVCLKSIILLNSGVYTFLSSTLKSLEEKDHIHRVLDKITDTLIHLMAKAGLTLQQQHQRLAQLLLILSHIRHMSSKRMEHLYSMKCKNVVPLSDLLLEMLDAHRLGTGAEDPRPSRKRRSLGDVGEIVMTQSPATLSLSPGERATLSCRASQDISKYLNWYQQKPGQAPRLLIYHTSRLHSGIPARFSGSGSGTDYTLTISSLQPEDFAVYFCQQGNTLPYTFGQGTKLEIKGGGGSGGGGSGGGGSQVQLQESGPGLVKPSETLSLTCTVSGVSLPDYGVSWIRQPPGKGLEWIGVIWGSETTYYSSSLKSRVTISKDNSKNQVSLKLSSVTAADTAVYYCAKHYYYGGSYAMDYWGQGTLVTVSSTTTPAPRPPTPAPTIASQPLSLRPEACRPAAGGAVHTRGLDFACDIYIWAPLAGTCGVLLLSLVITLYCKRGRKKLLYIFKQPFMRPVQTTQEEDGCSCRFPEEEEGGCELRVKFSRSADAPAYKQGQNQLYNELNLGRREEYDVLDKRRGRDPEMGGKPRRKNPQEGLYNELQKDKMAEAYSEIGMKGERRRGKGHDGLYQGLSTATKDTYDALHMQALPPR
With B3, the “percentage of CAR positive cells” value in assay [4] (absence of ligand) was “undetectable”; in assay [4] (presence of ligand), “about 5%”.

B4: OT-001356: IL12-CD19 CAR tandem construct listed without ER DD mutation in Table 13 (control) (protein)
chain: IWELKKDVYVVELDWYPDAPGEMVVLTCDTPEEDGITWTLDQSSEVLGSGKTLTIQVKEFGDAGQYTCHKGGEVLSHSLLLLHKKEDGIWSTDILKDQKEPKNKTFLRCEAKNYSGRFTCWWLTTISTDLTFSVKSSRGSSDPQGVTCGAATLSAERVRGDNKEYEYSVECQEDSACPAAEESLPIEVMVDAVHKLKYENYTSSFFIRDIIKPDPPKNLQLKPLKNSRQVEVSWEYPDTWSTPHSYFSLTFCVQVQGKSKREKKDRVFTDKTSATVICRKNASISVRAQDRYYSSSWSEWASVPCSGGGGSGGGGSGGGGSRNLPVATPDPGMFPCLHHSQNLLRAVSNMLQKARQTLEFYPCTSEEIDHEDITKDKTSTVEACLPLELTKNESCLNSRETSFITNGSCLASRKTSFMMALCLSSIYEDLKMYQVEFKTMNAKLLMDPKRQIFLDQNMLAVIDELMQALNFNSETVPQKSSLEEPDFYKTKIKLCILLHAFRIRAVTIDRVMSYLNASGS
As to B4, the “IL12p40 DMSO Average” value in assay [2] (HEK293T, 1 μg DNA) was 203531.67 pg/mL. Also, in assay [3], the “Surface CAR” value was determined as 40%.
